Here are results for six molecules from PMC7264293, “Multi-site-mediated entwining of the linear WIR-motif around WIPI β-propellers for autophagy” (Nature Communications, 2020).

Assay in all cases: ITC; WIPI3 proteins in the sample cell, GB1-tagged ATG2A fragments in the syringe; 25 °C; 50 mM Tris-HCl pH 8.0, 100 mM NaCl, 1 mM EDTA, 1 mM DTT; model of one binding site
What all share (conditions): both partners purified

In test [1] the target is T1, WIPI3 (full-length, wild-type) (human, UniProt Q5MNZ6 1-344).
T1 construct: human WIPI3, full length; also called wild-type WIPI3; full-length WIPI3; source: E. coli BL21(DE3), purified (Ni2+-Sepharose, size-exclusion chromatography)

In the next test the target is T2, WIPI3-Δloop (human, UniProt Q5MNZ6 1-344, Blade 2 B-C loop (75-80) deleted | Blade 6 C-D loop (264-281) deleted).
T2 construct: human WIPI3 with deletions of the Blade 2 B-C loop (75-80) and the Blade 6 C-D loop (264-281); also called loop-deletion mutant of WIPI3; source: E. coli BL21(DE3), purified (Ni2+-Sepharose, size-exclusion chromatography)

A further test has as its target Hsv2 (yeast, UniProt P50079 1-448).

Changes are numbered by the printed parent chain. Names and notes keep the numbering of the source.

T2 sequence (Q5MNZ6 other isoform, or with tags, fused parts or gaps with the stated changes): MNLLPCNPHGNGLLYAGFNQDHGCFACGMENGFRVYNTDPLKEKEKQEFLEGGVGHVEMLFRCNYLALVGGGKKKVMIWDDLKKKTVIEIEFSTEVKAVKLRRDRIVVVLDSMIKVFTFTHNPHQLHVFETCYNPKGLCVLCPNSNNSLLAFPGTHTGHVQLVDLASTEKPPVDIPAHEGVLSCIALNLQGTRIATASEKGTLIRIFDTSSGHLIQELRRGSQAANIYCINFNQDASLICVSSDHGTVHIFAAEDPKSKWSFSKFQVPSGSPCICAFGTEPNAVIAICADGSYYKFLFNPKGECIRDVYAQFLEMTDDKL
T1 sequence (Q5MNZ6 whole entry): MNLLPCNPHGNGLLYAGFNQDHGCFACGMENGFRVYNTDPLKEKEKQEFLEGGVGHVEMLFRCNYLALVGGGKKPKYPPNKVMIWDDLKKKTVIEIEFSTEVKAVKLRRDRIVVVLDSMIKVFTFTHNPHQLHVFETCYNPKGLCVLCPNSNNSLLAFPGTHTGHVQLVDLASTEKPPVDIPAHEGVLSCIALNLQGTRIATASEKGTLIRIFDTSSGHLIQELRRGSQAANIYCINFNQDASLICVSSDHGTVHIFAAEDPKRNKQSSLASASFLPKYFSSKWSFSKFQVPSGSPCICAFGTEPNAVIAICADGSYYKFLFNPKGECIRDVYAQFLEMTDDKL
Chain of Hsv2 (P50079 whole entry): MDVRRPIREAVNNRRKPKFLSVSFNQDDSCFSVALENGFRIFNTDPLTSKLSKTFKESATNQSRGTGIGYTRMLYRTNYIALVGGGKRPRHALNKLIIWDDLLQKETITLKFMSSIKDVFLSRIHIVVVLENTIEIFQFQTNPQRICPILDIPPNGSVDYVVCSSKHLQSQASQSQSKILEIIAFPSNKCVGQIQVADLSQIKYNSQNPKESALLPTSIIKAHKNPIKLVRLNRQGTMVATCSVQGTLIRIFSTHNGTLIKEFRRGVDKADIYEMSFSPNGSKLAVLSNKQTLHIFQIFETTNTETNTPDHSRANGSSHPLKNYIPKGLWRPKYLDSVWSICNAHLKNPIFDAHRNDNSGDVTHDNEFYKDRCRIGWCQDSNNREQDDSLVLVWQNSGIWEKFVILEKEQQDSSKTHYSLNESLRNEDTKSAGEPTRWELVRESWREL

B1: GB1-tagged ATG2A long fragment (1358-1404) (domain or fragment, human, UniProt Q2TAZ0 1358-1404, looked up)
chain: DSDEFCILDAPGLGIPPRDGEPVVTQLHPGPIVVRDGYFSRPIGSTD
notes: human ATG2A residues 1358-1404; source: E. coli BL21(DE3), purified (Ni2+-Sepharose, size-exclusion chromatography), tag not cleaved
For B1, the values for the Kd (in test [1]; in the test with WIPI3-Δloop) were 8.6 ± 0.1 µM and 6.3 ± 0.2 µM, respectively.

B2: GB1-tagged ATG2A short fragment (1374-1404), the WIR-peptide (peptide, UniProt Q2TAZ0 1374-1404, looked up)
chain: PRDGEPVVTQLHPGPIVVRDGYFSRPIGSTD
notes: human ATG2A residues 1374-1404; In the crystal (PDB 6KLR) the same stretch stood fused to the N-terminus of WIPI3-Δloop without the GB1 tag; source: E. coli BL21(DE3), purified (Ni2+-Sepharose, size-exclusion chromatography), tag not cleaved
As for B2, the Kd with Hsv2 came to 21.5 ± 2 µM; in test [1], 8.7 ± 0.1 µM; with WIPI3-Δloop, 6.4 ± 0.7 µM. Moreover, the “stoichiometry N” value with WIPI3-Δloop is 1.

B3: GB1-tagged WIR-peptide T1382Q (peptide, UniProt Q2TAZ0 1374-1404, looked up)
chain: B2 chain with T9Q
notes: human ATG2A residues 1374-1404 with T1382Q; source: E. coli BL21(DE3), purified (Ni2+-Sepharose, size-exclusion chromatography), tag not cleaved
With B3, the binding result with WIPI3-Δloop is given as “binds”.

B4: GB1-tagged WIR-peptide T1382A (peptide, UniProt Q2TAZ0 1374-1404, looked up)
chain: B2 chain with T9A
notes: human ATG2A residues 1374-1404 with T1382A; source: E. coli BL21(DE3), purified (Ni2+-Sepharose, size-exclusion chromatography), tag not cleaved
Take B4: in the test with WIPI3-Δloop, the binding result was “binds”.

B5: GB1-tagged WIR-peptide V1380A (peptide, UniProt Q2TAZ0 1374-1404, looked up)
chain: B2 chain with V7A
notes: human ATG2A residues 1374-1404 with V1380A; source: E. coli BL21(DE3), purified (Ni2+-Sepharose, size-exclusion chromatography), tag not cleaved
B5: the binding result with WIPI3-Δloop is recorded as “binds”.

B6: GB1-tagged WIR-peptide V1380Q (peptide, UniProt Q2TAZ0 1374-1404, looked up)
chain: B2 chain with V7Q
notes: human ATG2A residues 1374-1404 with V1380Q; source: E. coli BL21(DE3), purified (Ni2+-Sepharose, size-exclusion chromatography), tag not cleaved
B6: in the test with WIPI3-Δloop, the binding result is recorded as “binds”.
